In data set [1] the test system is HeLa Kyoto. Put plainly: melting temperature (median over replicates), in situ; higher = more thermally stable.
For data set [2], the system named is HeLa Kyoto. Put plainly: solubility change mitosis vs G1/S (difference of NP-40 vs SDS log2 ratios) (log2 ratio difference); higher = more soluble in mitosis.
The test system of data set [3] is HeLa Kyoto. Put plainly: thermal stability score vs G1/S (z-score of summed log2 fold changes over temperatures); higher = more thermally stable than in G1/S.
Data set [4] has as its system HeLa Kyoto. Put plainly: solubility in G1/S (NP-40 vs SDS abundance) (log2 ratio); higher = more soluble. As to conditions: cell cycle stage: G1/S.
[5] abbreviates: cell cycle stage: early G1 (4.5 h after nocodazole release).

The record followed here is the supplement of paper PMC5998384.
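For melting temperature (median over replicates), in situ in this document: HeLa Kyoto cells synchronized by double thymidine or nocodazole block, proteins quantified by TMT10plex mass spectrometry, three independent biological replicates.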
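For solubility change mitosis vs G1/S (difference of NP-40 vs SDS log2 ratios) in this document: synchronized HeLa Kyoto cells (double thymidine block for G1/S, nocodazole release for mitosis), protein amounts in NP-40 versus SDS lysates quantified by mass spectrometry, three biological replicates.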
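For solubility in G1/S (NP-40 vs SDS abundance) in this document: HeLa Kyoto cells arrested at G1/S by double thymidine block, proteins quantified by TMT10plex mass spectrometry in mild NP-40 versus SDS extracts, three biological replicates.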
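For thermal stability score vs G1/S (z-score of summed log2 fold changes over temperatures) in this document: synchronized HeLa Kyoto cells, proteins quantified by TMT10plex mass spectrometry, three biological replicates, mitosis taken 0.5 h after nocodazole release, G1/S directly after double thymidine block.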

Regarding COL4A2, the results for the melting temperature in the data set with HeLa Kyoto [1] (cell cycle stage: G1/S) and in the data set on HeLa Kyoto [1] (cell cycle stage: mitosis) were 53.4 °C and 55.3 °C, respectively. For the same substance, the “solubility change mitosis (log2)” value in the data set with HeLa Kyoto [2] amounted to 0.0703. For the same substance, the thermal stability score was 0.58 with HeLa Kyoto [3] (setting [5]) and -0.541 with HeLa Kyoto [3] (cell cycle stage: mitosis). In addition, the “solubility in G1/S (log2)” value with HeLa Kyoto [4] was 0.038.
Consider “MAAHLVKRCTCLLREAARQAPAMAPVGRLRLAWVAHKTLTSSATSPISHLPGSLMEPVEKERASTPYIEKQVDHLIKKATRPEELLELLGGSHDLDSNQAAMVLIRLSHLLSEKPEDKGLLIQDAHFHQLLCLLNSQIASVWHGTLSKLLGSLYALGIPKASKELQSVEQEVRWRMRKLKYKHLAFLAESCATLSQEQHSQELLAELLTHLERRWTEIEDSHTLVTVMMKVGHLSEPLMNRLEDKCLELVEHFGPNELRKVLVMLAAQSRRSVPLLRAISYHLVQKPFSLTKDVLLDVAYAYGKLSFHQTQVSQRLATDLLSLMPSLTSGEVAHCAKSFALLKWLSLPLFEAFAQHVLNRAQDITLPHLCSVLLAFARLNFHPDQEDQFFSLVHEKLGSELPGLEPALQVDLVWALCVLQQAREAELQAVLHPEFHIQFLGGKSQKDQNTFQKLLHINATALLEYPEYSGPLLPASAVAPGPSALDRKVTPLQKELQETLKGLLGSADKGSLEVATQYGWVLDAEVLLDSDGEFLPVRDFVAPHLAQPTGSQSPPPGSKRLAFLRWEFPNFNSRSKDLLGRFVLARRHIVAAGFLIVDVPFYEWLELKSEWQKGAYLKDKMRKAVAEELAK [TBRG4]”, for which the melting temperature with HeLa Kyoto [1] (cell cycle stage: G1/S) stood at 48.4 °C; in the data set with HeLa Kyoto [1] (cell cycle stage: mitosis), 48.2 °C. The “solubility change mitosis (log2)” value in the data set with HeLa Kyoto [2] is -0.127. Moreover, the thermal stability score with HeLa Kyoto [3] (setting [5]) amounted to 0.141; in the data set on HeLa Kyoto [3] (cell cycle stage: mitosis), 3.9. Further, in the data set on HeLa Kyoto [4], the “solubility in G1/S (log2)” value was determined as 0.123.
Regarding “MAAPVDLELKKAFTELQAKVIDTQQKVKLADIQIEQLNRTKKHAHLTDTEIMTLVDETNMYEGVGRMFILQSKEAIHSQLLEKQKIAEEKIKELEQKKSYLERSVKEAEDNIREMLMARRAQ [PFDN1]”, the values for the melting temperature with HeLa Kyoto [1] (cell cycle stage: G1/S) and with HeLa Kyoto [1] (cell cycle stage: mitosis) were 52.9 °C and 52.4 °C, respectively. Also, the “solubility change mitosis (log2)” value with HeLa Kyoto [2] was found to be 0.291. In addition, the thermal stability score was -5.42 in the data set with HeLa Kyoto [3] (setting [5]) and -7.79 in the data set with HeLa Kyoto [3] (cell cycle stage: mitosis). For the same substance, in the data set with HeLa Kyoto [4], the “solubility in G1/S (log2)” value is 0.242.
For “MEDEMPKTLYVGNLSRDVTEALILQLFSQIGPCKNCKMIMDTAGNDPYCFVEFHEHRHAAAALAAMNGRKIMGKEVKVNWATTPSSQKKDTSSSTVVSTQRSQDHFHVFVGDLSPEITTEDIKAAFAPFGRISDARVVKDMATGKSKGYGFVSFFNKWDAENAIQQMGGQWLGGRQIRTNWATRKPPAPKSTYESNTKQLSYDEVVNQSSPSNCTVYCGGVTSGLTEQLMRQTFSPFGQIMEIRVFPDKGYSFVRFNSHESAAHAIVSVNGTTIEGHVVKCYWGKETLDMINPVQQQNQIGYPQPYGQWGQWYGNAQQIGQYMPNGWQVPAYGMYGQAWNQQGFNQTQSSAPWMGPNYGVQPPQGQNGSMLPNQPSGYRVAGYETQ [TIA1]”, the melting temperature with HeLa Kyoto [1] (cell cycle stage: G1/S) turned out to be 53.5 °C; with HeLa Kyoto [1] (cell cycle stage: mitosis), 53 °C. In the data set on HeLa Kyoto [2], the “solubility change mitosis (log2)” value came out at 0.0786. Also, the figures for the thermal stability score in the data set with HeLa Kyoto [3] (setting [5]) and with HeLa Kyoto [3] (cell cycle stage: mitosis) were -0.653 and -1.44, respectively. For the same substance, the “solubility in G1/S (log2)” value in the data set with HeLa Kyoto [4] came to 0.0405.
For “MAVRALKLLTTLLAVVAAASQAEVESEAGWGMVTPDLLFAEGTAAYARGDWPGVVLSMERALRSRAALRALRLRCRTQCAADFPWELDPDWSPSPAQASGAAALRDLSFFGGLLRRAACLRRCLGPPAAHSLSEEMELEFRKRSPYNYLQVAYFKINKLEKAVAAAHTFFVGNPEHMEMQQNLDYYQTMSGVKEADFKDLETQPHMQEFRLGVRLYSEEQPQEAVPHLEAALQEYFVAYEECRALCEGPYDYDGYNYLEYNADLFQAITDHYIQVLNCKQNCVTELASHPSREKPFEDFLPSHYNYLQFAYYNIGNYTQAVECAKTYLLFFPNDEVMNQNLAYYAAMLGEEHTRSIGPRESAKEYRQRSLLEKELLFFAYDVFGIPFVDPDSWTPEEVIPKRLQEKQKSERETAVRISQEIGNLMKEIETLVEEKTKESLDVSRLTREGGPLLYEGISLTMNSKLLNGSQRVVMDGVISDHECQELQRLTNVAATSGDGYRGQTSPHTPNEKFYGVTVFKALKLGQEGKVPLQSAHLYYNVTEKVRRIMESYFRLDTPLYFSYSHLVCRTAIEEVQAERKDDSHPVHVDNCILNAETLVCVKEPPAYTFRDYSAILYLNGDFDGGNFYFTELDAKTVTAEVQPQCGRAVGFSSGTENPHGVKAVTRGQRCAIALWFTLDPRHSERDRVQADDLVKMLFSPEEMDLSQEQPLDAQQGPPEPAQESLSGSESKPKDEL [P3H1]”, the melting temperature stood at 53.2 °C in the data set on HeLa Kyoto [1] (cell cycle stage: G1/S) and 54.3 °C in the data set on HeLa Kyoto [1] (cell cycle stage: mitosis). For the same substance, the “solubility change mitosis (log2)” value with HeLa Kyoto [2] was -0.0228. The thermal stability score was 1.77 in the data set on HeLa Kyoto [3] (setting [5]) and 3.07 in the data set with HeLa Kyoto [3] (cell cycle stage: mitosis). In addition, in the data set on HeLa Kyoto [4], the “solubility in G1/S (log2)” value is -0.0649.
For the substance “MLLGGPPRSPRSGTSPKGPWSSTGHVQFGKSPQTWPRRTRPRSPEPAAPSGVRGSTWTRRRDSPRRAGPTALSRYVGHLWMGRRPPSPEARGPVPRSSAASRARRSLASPGISPGPLTATIGGAVAGGGPRQGRAEAHKEVFPGQRVGKMAAPMELFCWSGGWGLPSVDLDSLAVLTYARFTGAPLKVHKISNPWQSPSGTLPALRTSHGEVISVPHKIITHLRKEKYNADYDLSARQGADTLAFMSLLEEKLLPVLVHTFWIDTKNYVEVTRKWYAEAMPFPLNFFLPGRMQRQYMERLQLLTGEHRPEDEEELEKELYREARECLTLLSQRLGSQKFFFGDAPASLDAFVFSYLALLLQAKLPSGKLQVHLRGLHNLCAYCTHILSLYFPWDGAEVPPQRQTPAGPETEEEPYRRRNQILSVLAGLAAMVGYALLSGIVSIQRATPARAPGTRTLGMAEEDEEE [MTX1]”, the results for the melting temperature with HeLa Kyoto [1] (cell cycle stage: G1/S) and with HeLa Kyoto [1] (cell cycle stage: mitosis) were 52.8 °C and 52.4 °C, respectively. The “solubility change mitosis (log2)” value in the data set on HeLa Kyoto [2] was -0.12. The thermal stability score in the data set with HeLa Kyoto [3] (setting [5]) was 0.166; in the data set on HeLa Kyoto [3] (cell cycle stage: mitosis) it was -0.623. Besides, in the data set with HeLa Kyoto [4], the “solubility in G1/S (log2)” value worked out at 0.309.
